As usually defined, the Kd is the concentration at which binding is half-saturated. Read a high Kd as weaker binding. One may read the koff as the first-order rate constant of dissociation. By kon is commonly meant the second-order rate constant of association.

Consider ten molecules from PMC5008011, “The sclerostin-neutralizing antibody AbD09097 recognizes an epitope adjacent to sclerostin's binding site for the Wnt co-receptor LRP6” (Open Biology, 2016).

T1: 14mer peptide PARLLPNAIGRGKW (Homo sapiens)
T1 construct: stretch of loop 2 of sclerostin; also called base peptide; loop 2 mimicking peptide; source: synthetic peptide, on solid support (peptide array)
T1 chain: PARLLPNAIGRGKW

T2: 14mer peptide PARLLPNAIGRGKW, equivalent to residues Pro86 to Trp99 of sclerostin loop 2 (Homo sapiens)
T2 construct: loop 2 of sclerostin; also called first peptide; base peptide; source: synthetic peptide, synthesized on solid support (array)
T2 chain: PARLLPNAIGRGKW

T3: 14mer peptide NAIGRGKWWRPSGP, equivalent to residues Asn92 to Pro105 of sclerostin loop 2 (Homo sapiens)
T3 construct: loop 2 of sclerostin; also called second peptide; source: synthetic peptide, synthesized on solid support (array)
T3 chain: NAIGRGKWWRPSGP

B1: Fab AbD09097 (Fab, V domains shown)
VH: QVQLVESGGGLVQPGGSLRLSCAASGFTFTNYYMHWVRQAPGKGLEWVSTIAYDGSSTYYADSVKGRFTISRDNSKNTLYLQMNSLRAEDTAVYYCARWFTDDIWGQGTLVTVSS
VL: not shown
notes: format Fab-Thr-MH with a thrombin site (-FLVPRGS-) between CH1 and the tags; kappa light chain; From the HuCAL GOLD phage library, panned on murine sclerostin; also called ancestor Fab AbD09097; HCA230Z (as full-length IgG, AbD Serotec); source: E. coli, periplasmic expression, purified via hexahistidine-tag
B2: Fab AbD12683 (Fab, V domains shown)
VH: B1 VH
VL: not shown
notes: carries a tyrosine at position 3 of CDR3L; source: E. coli, periplasmic expression, purified via hexahistidine-tag
B3: Fab AbD12682 (Fab, V domains shown)
VH: B1 VH
VL: not shown
notes: consensus motif -QQDXXFPI- (X: His, Glu, Val or Ser); source: E. coli, periplasmic expression, purified via hexahistidine-tag
B4: Fab AbD12684 (Fab, V domains shown)
VH: B1 VH
VL: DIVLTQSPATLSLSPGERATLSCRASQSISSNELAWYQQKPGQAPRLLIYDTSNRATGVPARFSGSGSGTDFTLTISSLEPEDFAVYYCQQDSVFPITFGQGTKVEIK
notes: as for B3
B5: Fab AbD12687 (Fab, V domains shown)
VH: B1 VH
VL: DIVLTQSPATLSLSPGERATLSCRASQSISSNELAWYQQKPGQAPRLLIYDTSNRATGVPARFSGSGSGTDFTLTISSLEPEDFAVYYCQQDVVMPITFGQGTKVEIK
notes: source: E. coli, periplasmic expression, purified via hexahistidine-tag
B6: Fab AbD12685 (Fab, V domains shown)
VH: B1 VH
VL: B5 VL with V93Y, V94T, M95F, I97L
notes: as for B5
B7: Fab AbD12681 (Fab, V domains shown)
VH: B1 VH
VL: B5 VL with V93H, V94E, M95F
notes: as for B3
B8: Fab AbD09097 (Fab, V domains shown)
VH: B1 VH
VL: not shown
notes: also called ancestor Fab; source: E. coli, periplasmic expression, purified by the hexahistidine-tag
B9: Fab AbD12683 (Fab, V domains shown)
VH: B1 VH
VL: not shown
notes: as the light chain of Dm1 up to the Cys before CDR3L; as the light chain of Dm1 from Thr97 (Kabat) to the end; heavy chain extension as in Dm1; source: E. coli, periplasmic expression, purified by the hexahistidine-tag
B10: Fab AbD12682 (Fab, V domains shown)
VH: B1 VH
VL: not shown
notes: as for B9

Residue numbers refer to the chain shown, from its start.

T5 sequence (Q99P68 24-211): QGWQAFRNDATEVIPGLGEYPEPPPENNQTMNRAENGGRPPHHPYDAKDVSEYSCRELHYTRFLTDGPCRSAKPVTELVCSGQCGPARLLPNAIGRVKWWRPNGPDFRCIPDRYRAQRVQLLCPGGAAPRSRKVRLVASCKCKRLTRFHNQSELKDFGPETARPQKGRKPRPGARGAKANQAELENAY

For one assay, the target named is T1, 14mer peptide PARLLPNAIGRGKW
Description: peptide or protein array; peptides synthesised on solid support (overlapping, replacement and truncation libraries); Fab detected by a modified ELISA with goat anti-human peroxidase-coupled secondary antibody. The note with it: both partners purified. On the technique in general: ELISA stands for enzyme-linked immunosorbent assay.
Consider B1, for which the binding result is “binds”.
Same read-out and setting: the result for B2 reads “binds”; that for B3, “binds”.

A further assay deals with T4, human sclerostin (Homo sapiens, UniProt Q9BQB4).
T4 construct: sclerostin, human; The ELISA may have used the Sf9-made antigen instead; also called hScl
T4 sequence (Q9BQB4 24-213): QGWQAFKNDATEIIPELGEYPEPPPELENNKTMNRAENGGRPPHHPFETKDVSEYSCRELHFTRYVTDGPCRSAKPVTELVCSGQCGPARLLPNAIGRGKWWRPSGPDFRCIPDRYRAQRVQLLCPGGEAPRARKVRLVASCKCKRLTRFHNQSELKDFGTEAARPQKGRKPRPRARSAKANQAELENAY
Description: SPR; ProteOn, 25°C, HBS150T (10 mM HEPES, 150 mM NaCl, pH 7.5, 0.005% Tween 20); sclerostin proteins or variants amine-coupled to about 600 RU on a GLC chip; Fabs as analytes at 100, 75, 50, 25, 12.5 and 6.25 nM (one-shot kinetics); 1:1 Langmuir model. The note with it: both partners purified. For orientation: SPR reads the build-up and loss of mass on a sensor chip optically.
In the case of B4, the Kd worked out at 32 nM, the koff was 0.00073 s⁻¹ and the kon worked out at 25300 M⁻¹ s⁻¹.
The like results for B5 were, in that order, 228 nM, 0.0047 s⁻¹ and 23300 M⁻¹ s⁻¹.
For B6, the affinity, expressed as Kd, was 56 nM; the koff amounted to 0.001 s⁻¹; the association rate constant (kon) is 20400 M⁻¹ s⁻¹.
The like results for B2 were, in that order, 53 nM, 0.00033 s⁻¹ and 6400 M⁻¹ s⁻¹.
The like results for B3 were, in that order, 23 nM, 0.00066 s⁻¹ and 32000 M⁻¹ s⁻¹.
The like results for B7 were, in that order, 66 nM, 0.0016 s⁻¹ and 27400 M⁻¹ s⁻¹.

A further assay addresses T5, murine sclerostin (Mus musculus, UniProt Q99P68).
T5 construct: sclerostin, murine; The ELISA may have used the Sf9-made antigen instead; also called mScl
Described as above. The note with it: both partners purified.
B4 showed a dissociation constant Kd of 15 nM, an off-rate (koff) of 0.00025 s⁻¹ and an on-rate (kon) of 18400 M⁻¹ s⁻¹.
The like results for B5 were, in that order, 120 nM, 0.0017 s⁻¹ and 16000 M⁻¹ s⁻¹.
The molecule B6 came in with a Kd of 145 nM, a koff of 0.00029 s⁻¹ and a kon of 13000 M⁻¹ s⁻¹.
The like results for B2 were, in that order, under 1 nM, under 1e-06 s⁻¹ and 3400 M⁻¹ s⁻¹.
The like results for B3 were, in that order, 13 nM, 0.00025 s⁻¹ and 22000 M⁻¹ s⁻¹.
The like results for B7 were, in that order, 35 nM, 0.00054 s⁻¹ and 17000 M⁻¹ s⁻¹.

The next assay concerns the target T4, human sclerostin. Put plainly: cell-based or functional assay.
Settings: not given
In the case of B1, the “Wnt1 reporter gene assay (HEK293TSA M50, luciferase): fold change of the IC50 of human sclerostin for inhibition of Wnt1 activity with 500 nM Fab; the blocked pair is sclerostin and LRP5/6” value was found to be 6.4 fold.

Another assay addresses T5, murine sclerostin. Description: cell-based or functional assay.
Settings: not given
Take B1: the “Wnt1 reporter gene assay (HEK293TSA M50, luciferase): fold change of the IC50 of murine sclerostin for inhibition of Wnt1 activity with 500 nM Fab; the blocked pair is sclerostin and LRP5/6” value was found to be 12.6 fold.

A further assay concerns the target T4, human sclerostin. Description: ELISA; plates coated with 5 µg/ml protein in PBS; Fab at 2 µg/ml, 1 h at room temperature; detection with anti-human Fab-alkaline phosphatase and AttoPhos; signal/noise over the background of BSA, N1-CD33-His6 and GST. The note with it: both partners purified.
With B4, the “ELISA signal/noise ratio (fold background)” value was found to be 73 fold background.
Still for that read-out and setting: to B5 belongs 57 fold background; to B6, 61 fold background.
Take B1: the “ELISA signal/noise ratio (fold background)” value is 34 fold background.
The same measure, in the same setting: the result for B2 reads 64 fold background.
Still for that read-out and setting: to B3 belongs 57 fold background; to B7, 44 fold background.

The next assay concerns the target T5, murine sclerostin. Described as above. To be noted: both partners purified.
Regarding B4, the “ELISA signal/noise ratio (fold background)” value is 53 fold background.
Same read-out and setting: to B5 belongs 50 fold background; to B6, 46 fold background.
On the same count and under the same terms, to B1 belongs 39 fold background; to B2, 28 fold background.
Still for that read-out and setting: the result for B3 reads 44 fold background.
On to B7, for which the “ELISA signal/noise ratio (fold background)” value was found to be 26 fold background.

For another assay, the target named is T4, human sclerostin. Put plainly: SPR; ProteOn, 25°C, HBS150T (10 mM HEPES, 150 mM NaCl, pH 7.5, 0.005% Tween 20); sclerostin proteins or variants amine-coupled to about 600 RU on a GLC chip; Fabs as analytes at 100, 75, 50, 25, 12.5 and 6.25 nM (one-shot kinetics); 1:1 Langmuir model. The note with it: both partners purified. This is another data set of the same source.
In turn, B1 returned an equilibrium dissociation constant (Kd) of 260 nM, an off-rate constant (koff) of 0.0016 s⁻¹ and an on-rate (kon) of 6600 M⁻¹ s⁻¹.

Another assay concerns the target T5, murine sclerostin. The description is as above. The note with it: both partners purified. This is another data set of the same source.
For the molecule B1, binding was put at a Kd of 46 nM, the koff was 0.00018 s⁻¹ and the association rate constant (kon) came out at 4400 M⁻¹ s⁻¹.

The target in another assay is T4, human sclerostin. Put plainly: cell-based or functional assay.
Settings: not given
The source holds these as a separate data set.
With B1, the “Wnt1 reporter gene assay with 20 nM human sclerostin and 0-670 nM AbD09097: EC50 of the rescue of Wnt1 activity” value is 197 nM.

The target in the next assay is T5, murine sclerostin. Put plainly: cell-based or functional assay.
Settings: not given
The source holds these as a separate data set.
With B1, the “Wnt1 reporter gene assay with 20 nM murine sclerostin and 0-670 nM AbD09097: EC50 of the rescue of Wnt1 activity” value worked out at 46 nM.

Another assay addresses T2, 14mer peptide PARLLPNAIGRGKW, …. Description: peptide or protein array; truncation array: all truncated variants (3 to 14mer) of two 14mer loop 2 peptides synthesized on solid support; Fab added, modified ELISA with goat anti-human peroxidase coupled secondary antibody. To be noted: both partners purified.
With B8, the binding result is listed as “binds”.
Still for that read-out and setting: the result for B9 reads “binds”; that for B10, “binds”.

A further assay concerns the target T3, 14mer peptide NAIGRGKWWRPSGP, …. Described as above. The note with it: both partners purified.
On to B8, for which the binding result is “binds”.
